Laboratory results from US20030228627, “Assay for p53 function in cells” (published 2003).

How the values were obtained:
[1] = molecular target: T1, p53 (full-length, Flag-tagged) (Homo sapiens, UniProt P04637 P04637:1-393); assay: EMSA; p53 with or without acetylation by p300; site described as p53 5' binding site, gel outcome not shown in the text; conditions: tags: Flag, expressed in Sf9 cells; label: 32P end label
[2] = molecular target: T1, p53 (full-length, Flag-tagged); assay: footprint; DNase I footprinting on p21 promoter as chromatin or naked DNA; described as p53 3' binding site, outcome not shown in the text; conditions: tags: Flag, expressed in Sf9 cells

B1: p21 promoter p53 5' site 25 bp oligonucleotide (dsDNA)
DNA 1: CAGGAACATGTCCCAACATGTTGAA
DNA 2: TTCAACATGTTGGGACATGTTCCTG
binding result [1]: binds

B2: p21 promoter p53 3' site (dsDNA)
DNA 1: AGACTGGGCATGTCTGGGCA
DNA 2: TGCCCAGACATGCCCAGTCT
binding result [2]: binds
